Data reported in publication PMC12906810, “ZmMYB127 Modulates Maize Kernel Texture and Size by Integrating the Synthesis of Starch, Zein Proteins and Auxin”.

B1: z1C1 promoter WT probe (dsDNA)
DNA 1: TCTACTAAGCTTGTTCAACCACGAGAAGAATATTAG
DNA 2: CTAATATTCTTCTCGTGGTTGAACAAGCTTAGTAGA
B2: z1D2 promoter WT probe (dsDNA)
DNA 1: GTTGAAATTGATTGATATCCACAAATTTTGTTAA
DNA 2: TTAACAAAATTTGTGGATATCAATCAATTTCAAC
B3: Ae1 promoter WT probe (dsDNA)
DNA 1: GAGAATGAAAGCGAACTGTTGCTCACGGACTCTAAG
DNA 2: CTTAGAGTCCGTGAGCAACAGTTCGCTTTCATTCTC
B4: Bt1 promoter WT probe (dsDNA)
DNA 1: CACGCGCCGCCATTTCTGTTGCGAATGAGTCCATGG
DNA 2: CCATGGACTCATTCGCAACAGAAATGGCGGCGCGTG

Molecular target: ZmMYB127 (Zea mays (inbred B73), UniProt A0A804N6V3 1-263)
Test: EMSA; EMSA with LightShift Chemiluminescent EMSA kit protocol, 25 °C, 30 min, native PAGE; buffer, salt and pH not stated
Conditions: protein: recombinant; tags: GST (N-terminal, pGEX-6T); label: biotin (end); blunt

Sequence of ZmMYB127 (A0A804N6V3 entry or part of it): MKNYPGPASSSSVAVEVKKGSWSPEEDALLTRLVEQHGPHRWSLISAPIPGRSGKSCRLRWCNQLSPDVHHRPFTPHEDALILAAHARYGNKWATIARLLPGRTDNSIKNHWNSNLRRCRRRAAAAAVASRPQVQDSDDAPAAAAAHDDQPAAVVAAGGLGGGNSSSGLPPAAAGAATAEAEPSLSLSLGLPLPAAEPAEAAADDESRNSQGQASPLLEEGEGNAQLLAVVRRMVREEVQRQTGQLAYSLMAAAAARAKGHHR

| Binder | binding result |
| --- | --- |
| B1 | binds |
| B2 | binds |
| B3 | binds |
| B4 | binds |
